Publication PMC8982864 (PLoS Biology, 2022)
Substitutions are numbered along the chain they refer to. Names may count otherwise.

B1: CSPG4 domain 1 fragment D1_(401-560) with C-terminal GFP tag (domain or fragment, UniProt Q6UVK1 401-560, looked up)
chain: LAPEAWPAMELPEPCVPEPGLPPVFANFTQLLTISPLVVAEGGTAWLEWRHVQPTLDLMEAELRKSQVLFSVTRGARHGELELDIPGAQARKMFTLLDVVNRKARFIHDGSEDTSDQLVLEVSVTARVPMPSCLRRGQTYLLPIQVNPVNDPPHIIFPHG
notes: not shown: GFP, C-terminal, kept
B2: D1_(401-560) E460A, C-terminal GFP tag (domain or fragment)
chain: B1 chain with E60A
notes: as for B1
B3: D1_(401-560) D457A, C-terminal GFP tag (domain or fragment)
chain: B1 chain with D57A
notes: as for B1

What was measured:
Assay in all cases: ELISA
[1] = target: CSPG4 domain 1 fragment D1_(401-560) with C-terminal GFP tag (UniProt Q6UVK1)
[2] = target: truncated wild-type TcdB (residues 550-1902) (Clostridioides difficile (VPI 10463 …, UniProt P18177 550-1902)); details: both partners purified
[3] = target: full-length Clostridioides difficile Toxin B (TcdB), C-terminal 6XHis-tag (Clostridioides difficile (VPI 10463 …, UniProt P18177 1-2366)); details: both partners purified

| Molecule | binding result [3] | also measured |
| --- | --- | --- |
| truncated TcdB (550-1902) [change] (from UniProt P18177 550-1902) (domain or fragment) |  | fold reduction of binding against wild type [1]: 1 fold |
| B1 |  | binding result [2]: binds |
| B2 | binds |  |
| B3 | binds |  |
